Values of other authors, collected in article PMC5488749.
pKd: −log10 of the molar value. Where two headings read alike, the source gives them in different places.

What was measured:
[1] = biological target: Caspr4 C-terminal peptide (Homo sapiens) (UniProt Q9C0A0)
[2] = biological target: neurexin1 C-terminal peptide (Homo sapiens) (UniProt Q9ULB1)
[3] = biological target: Caspr4 C-terminal peptide (Homo sapiens) (UniProt Q9C0A0); remark: listed apart in the source
[4] = biological target: neurexin1 C-terminal peptide (Homo sapiens) (UniProt Q9ULB1); remark: listed apart in the source

Sequence of UniProt Q9ULB1 (Q9ULB1 whole entry, looked up, tested part not stated): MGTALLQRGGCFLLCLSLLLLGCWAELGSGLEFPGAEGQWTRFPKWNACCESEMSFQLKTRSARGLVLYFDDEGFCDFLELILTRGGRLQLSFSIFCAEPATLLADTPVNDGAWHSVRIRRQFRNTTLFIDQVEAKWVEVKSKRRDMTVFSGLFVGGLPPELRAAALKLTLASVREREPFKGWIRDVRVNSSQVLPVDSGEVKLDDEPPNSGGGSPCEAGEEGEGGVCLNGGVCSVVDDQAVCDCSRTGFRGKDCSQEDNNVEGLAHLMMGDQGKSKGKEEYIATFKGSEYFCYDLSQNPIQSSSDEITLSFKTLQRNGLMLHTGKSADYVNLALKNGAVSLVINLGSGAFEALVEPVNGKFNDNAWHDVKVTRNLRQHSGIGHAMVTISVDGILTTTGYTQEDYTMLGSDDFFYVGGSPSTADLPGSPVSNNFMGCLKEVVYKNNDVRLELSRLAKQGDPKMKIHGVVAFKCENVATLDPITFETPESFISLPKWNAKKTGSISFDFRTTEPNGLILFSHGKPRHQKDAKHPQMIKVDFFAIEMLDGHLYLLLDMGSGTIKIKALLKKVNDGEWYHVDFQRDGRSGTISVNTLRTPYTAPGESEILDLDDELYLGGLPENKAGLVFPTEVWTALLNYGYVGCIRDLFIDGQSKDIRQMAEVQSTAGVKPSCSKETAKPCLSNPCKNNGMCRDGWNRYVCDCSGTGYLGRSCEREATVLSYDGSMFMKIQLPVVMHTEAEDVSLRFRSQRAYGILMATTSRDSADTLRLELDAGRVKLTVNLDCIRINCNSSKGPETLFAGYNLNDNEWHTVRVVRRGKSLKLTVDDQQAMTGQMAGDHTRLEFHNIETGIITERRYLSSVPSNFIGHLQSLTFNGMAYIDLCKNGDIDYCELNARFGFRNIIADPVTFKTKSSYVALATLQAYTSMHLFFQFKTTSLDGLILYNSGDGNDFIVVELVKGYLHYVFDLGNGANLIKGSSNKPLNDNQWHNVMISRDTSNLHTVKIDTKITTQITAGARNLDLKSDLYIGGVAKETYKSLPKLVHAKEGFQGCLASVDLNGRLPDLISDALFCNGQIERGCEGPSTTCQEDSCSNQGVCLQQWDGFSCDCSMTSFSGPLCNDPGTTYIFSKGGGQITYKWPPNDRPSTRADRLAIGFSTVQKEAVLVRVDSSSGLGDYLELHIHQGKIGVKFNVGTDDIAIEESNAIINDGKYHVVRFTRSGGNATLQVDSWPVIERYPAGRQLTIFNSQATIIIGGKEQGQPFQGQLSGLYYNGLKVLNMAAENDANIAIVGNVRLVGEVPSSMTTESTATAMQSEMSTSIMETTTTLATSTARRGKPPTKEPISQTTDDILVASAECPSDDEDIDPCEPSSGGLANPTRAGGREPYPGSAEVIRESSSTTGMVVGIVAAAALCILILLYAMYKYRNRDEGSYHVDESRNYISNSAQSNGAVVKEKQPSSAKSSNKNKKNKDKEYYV
Sequence of UniProt Q9C0A0 (Q9C0A0 whole entry, looked up, tested part not stated): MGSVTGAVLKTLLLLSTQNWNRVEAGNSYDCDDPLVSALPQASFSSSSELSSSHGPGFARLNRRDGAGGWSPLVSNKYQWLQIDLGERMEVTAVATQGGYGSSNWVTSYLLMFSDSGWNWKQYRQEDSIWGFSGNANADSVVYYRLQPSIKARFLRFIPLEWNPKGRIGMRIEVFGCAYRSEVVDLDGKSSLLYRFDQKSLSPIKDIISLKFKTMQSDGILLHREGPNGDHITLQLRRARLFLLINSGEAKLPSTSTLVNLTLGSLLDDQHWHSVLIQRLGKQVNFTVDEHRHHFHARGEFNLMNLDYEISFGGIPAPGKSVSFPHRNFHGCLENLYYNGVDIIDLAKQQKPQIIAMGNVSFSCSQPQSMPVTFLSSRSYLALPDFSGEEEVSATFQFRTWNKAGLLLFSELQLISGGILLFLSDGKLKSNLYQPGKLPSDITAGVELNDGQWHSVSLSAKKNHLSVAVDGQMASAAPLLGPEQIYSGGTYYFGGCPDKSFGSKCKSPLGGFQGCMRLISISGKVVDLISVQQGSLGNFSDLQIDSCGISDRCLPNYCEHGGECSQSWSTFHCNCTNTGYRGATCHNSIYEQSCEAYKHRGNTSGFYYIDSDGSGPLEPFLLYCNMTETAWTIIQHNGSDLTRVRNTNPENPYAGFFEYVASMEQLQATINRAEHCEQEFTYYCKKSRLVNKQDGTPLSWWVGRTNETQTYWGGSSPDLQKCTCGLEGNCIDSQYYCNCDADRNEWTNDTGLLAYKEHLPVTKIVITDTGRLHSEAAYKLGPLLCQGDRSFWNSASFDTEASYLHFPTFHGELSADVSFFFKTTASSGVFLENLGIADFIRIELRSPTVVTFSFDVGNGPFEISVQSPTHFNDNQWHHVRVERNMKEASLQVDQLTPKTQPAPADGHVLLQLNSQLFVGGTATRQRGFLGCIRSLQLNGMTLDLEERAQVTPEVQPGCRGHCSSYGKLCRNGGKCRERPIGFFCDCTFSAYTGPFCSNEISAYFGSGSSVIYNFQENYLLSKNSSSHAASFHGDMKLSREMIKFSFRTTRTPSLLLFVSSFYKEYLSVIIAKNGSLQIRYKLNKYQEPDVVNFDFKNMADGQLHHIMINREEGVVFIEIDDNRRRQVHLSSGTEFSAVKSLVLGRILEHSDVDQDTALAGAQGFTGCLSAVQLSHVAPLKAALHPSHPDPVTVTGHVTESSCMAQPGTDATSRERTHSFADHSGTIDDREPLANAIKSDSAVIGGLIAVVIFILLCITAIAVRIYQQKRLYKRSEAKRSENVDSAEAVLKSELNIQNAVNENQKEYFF

Row | Substance | pKd [1] | pKd [2] | pKd [3] | pKd [4]
1 | Tiam1 PDZ (from UniProt Q13009) | 4.74 | 2.62 |  | 
2 | Tiam2 PDZ (from UniProt Q8IVF5) |  |  | 5.52 | 5.30
